From patent publication US20240307455A1, “COMPOSITIONS, DEVICES AND METHODS FOR TREATING IMMUNE-MEDIATED INFLAMMATORY DISEASES” (SIGILON THERAPEUTICS, INC., priority 2021, published 2024)

B1: rhIL22BP: recombinant human IL-22 binding protein, an endogenous and specific IL-22 inhibitor (protein, UniProt Q969J5 22-263, looked up)
Interleukin-22 receptor …: TQSTHESLKPQRVQFQSRNFHNILQWQPGRALTGNSSVYFVQYKIMFSCSMKSSHQKPSGCWQHISCNFPGCRTLAKYGQRQWKNKEDCWGTQELSCDLTSETSDIQEPYYGRVRAASAGSYSEWSMTPRFTPWWETKIDPPVMNITQVNGSLLVILHAPNLPYRYQKEKNVSIEDYYELLYRVFIINNSLEKEQKVYEGAHRAVEIEALTPHSSYCVVAEIYQPMLDRRSQRSEERCVEIP
B2: rhIL-22: rhIL-22 (peprotech Cat #200-22) (protein, UniProt Q9GZX6 34-179, looked up)
Interleukin-22: APISSHCRLDKSNFQQPYITNRTFMLAKEASLADNNTDVRLIGEKLFHGVSMSERCYLMKQVLNFTLEEVLFPQSDRFQPYMQEVVPFLARLSNRLSTCHIEGDDLHIQRNVQKLKDTVKKLGESGEIKAIGELDLLFMSLRNACI
B3: hIL-22: human IL-22 in filter sterilized supernatant from hIL22 producing genetically modified ARPE-19 cells (protein, UniProt Q9GZX6 34-179, looked up)
Interleukin-22: B2 Interleukin-22

What was measured:
[1] = in vivo; cited from earlier work
IL-22 = target: T1, IL-22 (Homo sapiens, UniProt Q9GZX6); assay: Inhibition of IL22 activity in Col205 cells; assay type: cell-based; settings: ARPE IL-22 supernatant 1%; rhIL22BP 100, 50, 25 and 1 ng/ml
T1 construct: made in house; host or cells: genetically modified ARPE-19 cells; filter-sterilized culture supernatant, not purified
T1 sequence (Q9GZX6 34-179): B2 Interleukin-22
Method: Inhibition of IL22 activity in Col205 cells. Col205 cells were seeded at a density of 2×10^5 cells/well in a 96 well plate and starved in serum free media overnight. The serum free media was removed and the cells were treated with 190 ul of recombinant human IL-22 binding protein (rhIL22BP) diluted in RPMI/10% FBS at concentrations of 100, 50, 25 and 1 ng/ml. Filter sterilized supernatant from hIL22-producing ARPE-19 cells (ARPE IL-22) or unmodified ARPE-19 cells (ARPE WT) was diluted 1:5 in RPMI/10% FBS and 10 ul was added to the wells for a final concentration of 1%. The plate was incubated overnight at 37 C, 5% CO2 for ˜18 h. The supernatant was transferred to a new 96 well plate and centrifuged.

Colo205 cells = assay: Induction of IL-10 production by Colo205 cells (ELISA); assay type: cell-based, human; settings: ~18 h incubation
Method: Balb-3T3 cells and ARPE-19 cells were genetically modified to express and secrete murine IL-22 and human IL-22, respectively. The ability of the genetically modified ARPE-19 cells to produce active hIL-22 in vitro was assessed by the induction of IL-10 production by Colo205 cells, which are derived from human colonic epithelium.
Generation of IL-22 response curve. Col205 cells were seeded at a density of 2×10^5 cells/well in a 96 well plate and starved in serum free media overnight. The serum free media was removed from the wells and the cells were treated with rhIL-22 (peprotech Cat #200-22) diluted in RPMI/10% FBS at half log dilutions to generate final concentrations of 1000, 316.46, 100.14, 31.69, 10.02, 3.17, 1 and 0.32 pg/ml. The plate was incubated overnight at 37 C, 5% CO2 for ˜18 h. The supernatant was transferred to a new 96 well plate and centrifuged.
Biological activity of hIL-22 produced by genetically modified ARPE-19 cells. Col205 cells were seeded at a density of 2×10^5 cells/well in a 96 well plate and starved in serum free media overnight. The serum free media was removed and the cells were treated with filter sterilized supernatant from hIL22 producing ARPE-19 cells (ARPE-19 IL-22) or unmodified ARPE-19 cells (ARPE-19 WT) diluted in RPMI/10% FBS at final concentrations of 1%, 0.5%, 0.25% and 0.125%. The plate was incubated overnight at 37 C, 5% CO2 for ˜18 h. […]

Molecule | IL-10 production by Colo205 cells (Colo205 cells) | further results
human IL-10: human IL-10 protein in plasma |  | half-life of human IL-10 in plasma [1]: about 2 hours
B1 |  | IL-10 production induced by hIL-22 in the presence of rhIL22BP (IL-22): blocked
B2 | induced IL-10 production | 
B3 | functionally active | 
